According to publication PMC4395114 (PLoS Pathogens, 2015):

Biological target: the molecule itself
Assay: SEC + other: negative stain electron microscopy

B1: RNA-free recombinant WT NP (NΔ7NP, C-terminal His tag), influenza A/WSN/33 (natural protein)
chain: RSYEQMETDGERQNATEIRASVGKMIGGIGRFYIQMCTELKLSDYEGRLIQNSLTIERMVLSAFDERRNKYLEEHPSAGKDPKKTGGPIYRRVDGKWMRELILYDKEEIRRIWRQANNGDDATAGLTHMMIWHSNLNDATYQRTRALVRTGMDPRMCSLMQGSTLPRRSGAAGAAVKGVGTMVMELIRMIKRGINDRNFWRGENGRRTRIAYERMCNILKGKFQTAAQRAMVDQVRESRNPGNAEFEDLIFLARSALILRGSVAHKSCLPACVYGPAVASGYDFEREGYSLVGIDPFRLLQNSQVYSLIRPNENPAHKSQLVWMACHSAAFEDLRVSSFIRGTKVVPRGKLSTRGVQIASNENMETMESSTLELRSRYWAIRTRSGGNTNQQRASSGQISIQPTFSVQRNLPFDRPTIMAAFTGNTEGRTSDMRTEIIRLMESARPEDVSFQGRGVFELSDEKAASPIVPSFDMSNEGSYFFGDNAEEYDN
For B1, the “stoichiometry N” value was 3 to 6.
